Assay results reported in patent US20220363758A1 (SORRENTO THERAPEUTICS, published 2022).
Changes are numbered by the printed parent chain. Names and notes keep the numbering of the source. Read-outs that look alike come from different tables or passages of the source.

B1: Hu291 mAb (antibody, V domains shown)
VH: EVQLVQSGAEVKKPGASVKVSCKASGYTFISYTMHWVRQAPGQGLEWMGYINPRSGYTHYNQKLKDKATLTADKSASTAYMELSSLRSEDTAVYYCARSAYYDYDGFAYWGQGTLVTVSS
VL: DIQMTQSPSSLSASVGDRVTITCSASSSVSYMNWYQQKPGKAPKRLIYDTSKLASGVPSRFSGSGSGTDFTLTISSLQPEDFATYYCQQWSSNPPTFGGGTKVEIK
notes: also called Hum291 anti-CD3 mAb; HuM291 mAb
B2: CD38 A2-3H10m1 assembled with CD3-scFv tsm #5 (bispecific antibody, human IgG1, lambda, L234A L235A)
chain: EVQLVQSGAEVKKPGASVKVSCKASGYTFISYTMHWVRQAPGQGLEWMGYINPRSGYTHYNQKLKDRATLTADKSASTAYMELSSLRSEDTAVYYCARSAYYDYDGFAYWGQGTLVTVSSGGGGSGGGGSGGGGSGGGGSDIQMTQSPSSLSASVGDRVTITCSASSSVSYMNWYQQKPGKAPKRLIYDTSKLASGVPSRFSGSGSGTDFTLTISSLQPEDFATYYCQQWSSNPPTFGGGTKVEIKGGSGGDKTHTCPPCPAPEAAGGPSVFLFPPKPKDTLMISRTPEVTCVVVDVSHEDPEVKFNWYVDGVEVHNAKTKPREEQYNSTYRVVSVLTVLHQDWLNGKEYKCKVSNKALPAPIEKTISKAKGQPREPQVYTLPPSREEMTKNQVSLSCAVKGFYPSDIAVEWESNGQPENNYKTTPPVLDSDGSFFLVSKLTVDKSRWQQGNVFSCSVMHEALHNHYTQKSLSLSPGK
heavy: QVQLVESGGGLVKPGGSLRLSCAASGFTFSDDYMSWIRQAPGKGLEWVASVSNGRPTTYYADSVRGRFTISRDNAKNSLYLQMNSLRAEDTAVYYCAREGWSGEFTDWGQGTLVTVSSASTKGPSVFPLAPSSKSTSGGTAALGCLVKDYFPEPVTVSWNSGALTSGVHTFPAVLQSSGLYSLSSVVTVPSSSLGTQTYICNVNHKPSNTKVDKRVEPKSCDKTHTCPPCPAPEAAGGPSVFLFPPKPKDTLMISRTPEVTCVVVDVSHEDPEVKFNWYVDGVEVHNAKTKPREEQYNSTYRVVSVLTVLHQDWLNGKEYKCKVSNKALPAPIEKTISKAKGQPREPQVYTLPPSREEMTKNQVSLWCLVKGFYPSDIAVEWESNGQPENNYKTTPPVLDSDGSFFLYSKLTVDKSRWQQGNVFSCSVMHEALHNHYTQKSLSLSPGK
light: not shown
B3: CD3-tsm#7 (WT) scFv-Fc fusion (Fc fusion)
chain: B2 chain with R67K
notes: Wild type HuM291 VH; As for CD3-tsm#1: scFv g1 Fc fusion chain; also called wild type Hum291 scFv
B4: CD38 D8-3A1/CD3 (M48I/K67R) bispecific antibody (bispecific antibody, human IgG1, lambda, L234A L235A)
chain: B2 chain with M48I
heavy: QVQLVESGGGVVQPGGSLRLSCAASGFNVRTKYVHWVRQAPGKGLEWVSGIYSDPYTSYAYSDSVKGRFTISRDMSKNTVYLQMNRLRAEDTAVYYCARETNTGFSNSWYLDFWGQGTLVTVSSASTKGPSVFPLAPSSKSTSGGTAALGCLVKDYFPEPVTVSWNSGALTSGVHTFPAVLQSSGLYSLSSVVTVPSSSLGTQTYICNVNHKPSNTKVDKRVEPKSCDKTHTCPPCPAPEAAGGPSVFLFPPKPKDTLMISRTPEVTCVVVDVSHEDPEVKFNWYVDGVEVHNAKTKPREEQYNSTYRVVSVLTVLHQDWLNGKEYKCKVSNKALPAPIEKTISKAKGQPREPQVYTLPPSREEMTKNQVSLWCLVKGFYPSDIAVEWESNGQPENNYKTTPPVLDSDGSFFLYSKLTVDKSRWQQGNVFSCSVMHEALHNHYTQKSLSLSPGK
light: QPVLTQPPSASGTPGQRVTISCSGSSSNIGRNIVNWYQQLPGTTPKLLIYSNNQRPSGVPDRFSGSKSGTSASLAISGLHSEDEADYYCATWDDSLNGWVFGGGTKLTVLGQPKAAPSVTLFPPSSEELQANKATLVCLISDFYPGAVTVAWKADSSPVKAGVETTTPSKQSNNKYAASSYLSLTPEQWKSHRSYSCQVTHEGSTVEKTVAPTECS
B5: CD3-tsm#2 (I30V/K67R) scFv-Fc fusion (Fc fusion)
chain: B2 chain with I30V
notes: As for CD3-tsm#1: scFv g1 Fc fusion chain
B6: CD38 A2/CD3 (M48I/K67R) bispecific antibody (bispecific antibody, human IgG1, lambda, L234A L235A)
chain: B2 chain with M48I
heavy: B2 heavy with G100D, S102G
light: not shown
B7: CD38 A2-3H10m1 assembled with CD3-scFv tsm #7 (bispecific antibody, human IgG1, lambda, L234A L235A)
chain: B2 chain with R67K
heavy: B2 heavy
light: not shown
notes: tsm #7 carries the wild type HuM291 VH
B8: CD3-tsm#6 (I30V) scFv-Fc fusion (Fc fusion)
chain: B2 chain with I30V, R67K
notes: As for CD3-tsm#1: scFv g1 Fc fusion chain; also called CD3-tsm#6 ( (BOV))
B9: CD38 A2-3H10m1 assembled with CD3-scFv tsm #2 (bispecific antibody, human IgG1, lambda, L234A L235A)
chain: B2 chain with I30V
heavy: B2 heavy
light: not shown
B10: CD38 A2-3H10m1 assembled with CD3-scFv tsm #3 (bispecific antibody, human IgG1, lambda, L234A L235A)
chain: B2 chain with M48I, R67K
heavy: B2 heavy
light: not shown
B11: CD38A2-3H10m1/CD3tsm #1-scFvg1LALA-knob-in-hole bispecific antibody (bispecific antibody, human IgG1, lambda, L234A L235A)
chain: B2 chain with M48I
heavy: B2 heavy
light: not shown
notes: Three chains: anti-CD3 scFv-Fc (hole, LALA), anti-CD38 heavy chain (knob, LALA) and anti-CD38 lambda light chain; also called CD38 A2-3H10m1 assembled with CD3-scFv tsm #1; CD38A2-3H10m1/CD3tsm #1 IgG-scFv
B12: CD3-tsm#1 (M48I/K67R) scFv-Fc fusion (Fc fusion)
chain: B2 chain with M48I
notes: also called CD3 scFv-Fc fusion, VH variant M48I/K67R, tsm #1
B13: CD38 D8-3E1/CD3 (M48I/K67R) bispecific antibody (bispecific antibody, human IgG1, lambda, L234A L235A)
chain: B2 chain with M48I
heavy: B4 heavy with G26K, F27L, R30S, T31P
light: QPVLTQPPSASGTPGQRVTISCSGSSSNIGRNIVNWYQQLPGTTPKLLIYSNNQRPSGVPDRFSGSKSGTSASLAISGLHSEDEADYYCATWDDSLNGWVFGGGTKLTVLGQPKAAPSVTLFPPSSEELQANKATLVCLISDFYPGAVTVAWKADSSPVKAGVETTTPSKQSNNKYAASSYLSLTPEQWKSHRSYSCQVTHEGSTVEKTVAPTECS
notes: also called CD38 D8-3E1/CD3 (M481/K67R)
B14: CD3-tsm#3 (M48I) scFv-Fc fusion (Fc fusion)
chain: B2 chain with M48I, R67K
notes: as for B5
B15: CD38 A2-3H10m1 assembled with CD3-scFv tsm #4 (bispecific antibody, human IgG1, lambda, L234A L235A)
chain: B2 chain with I30V, M48I
heavy: B2 heavy
light: not shown
B16: CD38 D8/CD3 (M48I/K67R) bispecific antibody (bispecific antibody, human IgG1, lambda, L234A L235A)
chain: B2 chain with M48I
heavy: B4 heavy with N28I, R30S, K32N
light: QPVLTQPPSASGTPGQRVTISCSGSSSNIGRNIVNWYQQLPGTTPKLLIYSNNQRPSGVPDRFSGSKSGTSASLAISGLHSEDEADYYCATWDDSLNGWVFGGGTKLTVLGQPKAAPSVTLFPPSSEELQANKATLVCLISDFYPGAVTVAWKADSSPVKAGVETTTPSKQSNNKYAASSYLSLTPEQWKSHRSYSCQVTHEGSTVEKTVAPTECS
B17: CD38 A2-3H10m1 assembled with CD3-scFv tsm #6 (bispecific antibody, human IgG1, lambda, L234A L235A)
chain: B2 chain with I30V, R67K
heavy: B2 heavy
light: not shown
B18: CD3-tsm#5 (K67R) scFv-Fc fusion (Fc fusion)
chain: B2 chain
notes: as for B5
B19: CD3-tsm#4 (I30V/M48I/K67R) scFv-Fc fusion (Fc fusion)
chain: B2 chain with I30V, M48I
notes: as for B5
B20: CD38 D8-1B5/CD3 (M48I/K67R) bispecific antibody (bispecific antibody, human IgG1, lambda, L234A L235A)
chain: B2 chain with M48I
heavy: B4 heavy with F27L, V29A, K32N
light: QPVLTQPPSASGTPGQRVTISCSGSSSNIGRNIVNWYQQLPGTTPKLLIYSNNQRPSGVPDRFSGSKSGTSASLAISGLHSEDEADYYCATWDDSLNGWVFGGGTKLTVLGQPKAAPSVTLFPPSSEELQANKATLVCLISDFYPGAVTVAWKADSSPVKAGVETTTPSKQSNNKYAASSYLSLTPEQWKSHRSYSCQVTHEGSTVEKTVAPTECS
B21: CD38 D8-3A1/CD3 mAb (antibody, V domains shown)
VH: QVQLVESGGGVVQPGGSLRLSCAASGFNVRTKYVHWVRQAPGKGLEWVSGIYSDPYTSYAYSDSVKGRFTISRDMSKNTVYLQMNRLRAEDTAVYYCARETNTGFSNSWYLDFWGQGTLVTVSS
VL: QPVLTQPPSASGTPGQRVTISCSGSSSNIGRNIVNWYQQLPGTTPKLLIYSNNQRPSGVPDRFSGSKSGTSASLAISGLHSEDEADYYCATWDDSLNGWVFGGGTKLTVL
notes: stands beside the row 'CD38 D8-3A1/CD3 IgG-scFv', so it is another molecule than m27

Key:
[1] = target: T1, CD3 antigen expressed on cells (human CD3 epsilon) (human, UniProt P07766 23-207); assay: flow cytometry on CD38(-) primary human T cells, mouse anti-human Fc-APC detection, GeoMean RL-H of singlets
T1 construct: also called cell surface CD3 antigen; CD3 on T cells

[2] = target: T1, CD3 antigen expressed on cells (human …); assay: as above; remark: listed apart in the source
[3] = target: T1, CD3 antigen expressed on cells (human …); assay: flow cytometry on CD3-bearing cells (cell type not given)
[4] = target: T2, Recombinant human CD38-his tag (human, UniProt P28907 43-300); assay: SPR (Biacore T200), antibody as captured ligand, CD38 as sample, 1:1 binding model
T2 construct: also called recombinant CD38 antigen; CD38 antigen; not shown: his tag

Row | Binder | EC50 [3] [ng/mL] | Kd [4] [nM] | koff [4] [s⁻¹] | kon [4] [M⁻¹ s⁻¹] | other results
1 | B1 |  |  |  |  | EC50 (read off the curve) [1]: ~0.02 ng/mL; EC50 (read off the curve) [2]: ~0.008 ng/mL
2 | B2 |  |  |  |  | EC50 (read off the curve) [2]: ~0.1 ng/mL
3 | B3 | 200 |  |  |  | 
4 | B4 |  | 4.95 | 0.00393 | 794000 | 
5 | B5 | 1500 |  |  |  | 
6 | B6 |  | 12.3 | 0.00637 | 517000 | 
7 | B7 |  |  |  |  | EC50 (read off the curve) [2]: ~0.2 ng/mL
8 | B8 | 100 |  |  |  | 
9 | B9 |  |  |  |  | EC50 (read off the curve) [1]: ~1 ng/mL
10 | B10 |  |  |  |  | EC50 (read off the curve) [1]: ~0.2 ng/mL
11 | B11 |  | 1.51 | 0.00203 | 1.35e+06 | EC50 (read off the curve) [1]: ~0.2 ng/mL
12 | B12 | 200 |  |  |  | 
13 | B13 |  | 6.55 | 0.00565 | 862000 | 
14 | B14 | 200 |  |  |  | 
15 | B15 |  |  |  |  | EC50 (read off the curve) [1]: ~0.1 ng/mL
16 | B16 |  | 20.3 | 0.011 | 541000 | 
17 | B17 |  |  |  |  | EC50 (read off the curve) [2]: ~0.1 ng/mL
18 | B18 | 100 |  |  |  | 
19 | B19 | 100 |  |  |  | 
20 | B20 |  | 4.52 | 0.00388 | 859000 | 
21 | B21 |  | 9.14 | 0.00372 | 406000 | 
